{"source": "paper PMC2993699", "key": {"[1]": {"molecular_target": "R. centenaria CheW (Rc-CheW) containing an N-terminal his-tag (R. centenaria) (UniProt P72251)", "sequence (P72251 entry or part of it)": "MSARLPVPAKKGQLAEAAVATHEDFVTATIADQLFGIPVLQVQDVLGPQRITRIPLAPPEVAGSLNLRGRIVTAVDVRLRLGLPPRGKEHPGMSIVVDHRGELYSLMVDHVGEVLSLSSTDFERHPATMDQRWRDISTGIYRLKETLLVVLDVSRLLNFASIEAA", "assay": "pull-down; as a1, residual ATP hydrolyzed by adding apyrase"}, "[2]": {"molecular_target": "R. centenaria CheW (Rc-CheW) containing an N-terminal his-tag (R. centenaria) (UniProt P72251)", "assay": "pull-down; as a1, with increasing amounts of added ATP (0-20 mM)"}, "[3]": {"molecular_target": "R. centenaria CheW (Rc-CheW) containing an N-terminal his-tag (R. centenaria) (UniProt P72251)", "assay": "pull-down; 50 μg purified his-Rc-CheW (bait) mixed with one in vitro translated [35S]-labelled prey, overnight at 37°C, bound to Cu(II)-Sepharose in 20 mM sodium phosphate pH 7.7, 200 mM NaCl, 50 mM imidazole; eluted with 500 mM imidazole; phosphorimaging; no ATP added (low ATP level, 2 mM, from the translation reaction)"}, "[4]": {"molecular_target": "Pph with a C-terminal strep-tag and an N-terminal his-tag (His10-Ppr(Δ1-601)-StrepTag II, pET16b-Pph) (R. centenaria)", "assay": "SEC; crude soluble extract of E. coli C41 (DE3) with pET16b-Pph on Sephadex G-200, non-reducing conditions, 20 mM Tris pH 7.4, 40 mM NaCl, 20% glycerol; fractions by SDS-PAGE and Western blot against strep tag II"}, "[5]": {"molecular_target": "Pph with a C-terminal strep-tag and an N-terminal his-tag (His10-Ppr(Δ1-601)-StrepTag II, pET16b-Pph) (R. centenaria)", "assay": "resonant mirror spectroscopy (Iasys biosensor cuvette); purified Pph (50 μg/ml) immobilised on an aminosilane cuvette (via strep-tag to streptactin by the results); increasing concentrations of purified Rc-CheW, 30 minutes each; fractional saturation, Scatchard plot"}}, "data": [{"substance": "histidine kinase domain Pph of Ppr, in vitro translated and [35S]-methionine labelled (from pSK4) (domain or fragment)", "values": [{"measurement": "bound Pph with apyrase (% of input)", "setting": "[1]", "value": 5, "unit": "%"}, {"measurement": "Rc-CheW-bound Pph with added ATP (% of input)", "setting": "[2]", "value": 24, "unit": "%"}, {"measurement": "co-elution rate (% of input Pph)", "setting": "[3]", "value": 13, "unit": "%"}]}, {"substance": "Pph with a C-terminal strep-tag and an N-terminal his-tag (His10-Ppr(Δ1-601)-StrepTag II, pET16b-Pph) (domain or fragment)", "values": [{"measurement": "stoichiometry N", "setting": "[4]", "value": 2}]}, {"substance": "R. centenaria CheW (Rc-CheW) containing an N-terminal his-tag (from UniProt P72251 1-165) (natural protein)", "values": [{"measurement": "Kd", "setting": "[5]", "value": 130, "unit": "nM"}]}]}
